The target of experiment [1] is Apple (Mal d 1, MyBiosource, Cat# MBS 1224919) (Apple) (UniProt P43211). The experiment is described as follows: SPR Biacore 4000, mAb captured by anti-human Fc, 25 C. A general note: In SPR one partner is held on a chip, and binding of the other changes the refractive index at the surface.
In experiment [2] the target is European Hornbeam (Car b 1 isoform 2, MyBiosource, Cat# MBS 1043940) (European Hornbeam) (UniProt P38950). The description is as above.
The target in experiment [3] is Alder (Aln g 1, MyBiosource, Cat# MBS 1041484) (Alder) (UniProt P38948). The experiment is described as above.
Experiment [4] concerns the target Hazel (Cor A 1, MyBiosource, Cat# MBS5304600) (Hazel) (UniProt Q08407). The experiment is described as above.
Experiment [5] has as its target European Hornbeam (Car b 1 isoform 1A & 1B, MyBiosource, Cat#MBS 1200018) (European Hornbeam) (UniProt P38949). Described as above.
Experiment [6] concerns the target Celery (Api g 1, MyBiosource, Cat# MBS 1171376) (Celery) (UniProt P49372). The description is as above.
The target in experiment [7] is natural Bet v 1 (Indoor Biotechnologies, # NA-BV1-1) (Betula verrucosa (Betula pendula)) (UniProt P15494). The experiment is described as follows: blocking ELISA, captured IgE of donor 25299-RJ, 1 ug/mL antibody. (ELISA stands for enzyme-linked immunosorbent assay.)
Experiment [8] has the same target. The experiment is described as follows: blocking ELISA, captured IgE of donor 23658-MD, 1 ug/mL antibody.
For experiment [9] the target is unchanged. The experiment is described as follows: blocking ELISA, captured IgE of donor 23939-MH, 1 ug/mL antibody.
The target is the same in experiment [10]. The experiment is described as follows: blocking ELISA, captured IgE of donor 22627-MN, 1 ug/mL antibody.
The target is the same in experiment [11]. The experiment is described as follows: blocking ELISA, captured IgE of donor 25609-MS, 1 ug/mL antibody.
Experiment [12] has the same target. The experiment is described as follows: dose-response blocking ELISA, captured IgE of donor 23939-MH, at 1 ug/mL antibody.
The target is the same in experiment [13]. The experiment is described as follows: blocking ELISA, captured IgE of donor 25414-CW, 1 ug/mL antibody.
Experiment [14] has the same target. The experiment is described as follows: dose-response blocking ELISA, captured IgE of donor 25609-MS, at 1 ug/mL antibody.
Experiment [15] has the same target. The experiment is described as follows: blocking ELISA, captured IgE of donor 23035-BL, 1 ug/mL antibody.
Experiment [16] shares this target. The experiment is described as follows: dose-response blocking ELISA, captured IgE of donor 25340-RR, at 1 ug/mL antibody.
For experiment [17] the target is unchanged. The experiment is described as follows: blocking ELISA, captured IgE of donor 25340-RR, 1 ug/mL antibody.
Experiment [18] has the same target. The experiment is described as follows: blocking ELISA, captured IgE of donor 26532-CC, 1 ug/mL antibody.
For experiment [19] the target is unchanged. The experiment is described as follows: blocking ELISA, captured IgE of donor 29718-MW, 1 ug/mL antibody.

This passage reports 100 nM Analyte Bound (RU) and Percent Blocking results from US20180346555A1.

Hazel (Cor A 1, MyBiosource, Cat# MBS5304600) (Hazel), sequence (Q08407 2-160 limits assumed): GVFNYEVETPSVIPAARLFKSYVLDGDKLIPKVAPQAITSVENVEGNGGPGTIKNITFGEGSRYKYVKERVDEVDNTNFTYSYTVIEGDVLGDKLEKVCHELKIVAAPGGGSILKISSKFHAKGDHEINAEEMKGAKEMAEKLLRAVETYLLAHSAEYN
Apple (Mal d 1, MyBiosource, Cat# MBS 1224919) (Apple), sequence (P43211 2-159 limits assumed): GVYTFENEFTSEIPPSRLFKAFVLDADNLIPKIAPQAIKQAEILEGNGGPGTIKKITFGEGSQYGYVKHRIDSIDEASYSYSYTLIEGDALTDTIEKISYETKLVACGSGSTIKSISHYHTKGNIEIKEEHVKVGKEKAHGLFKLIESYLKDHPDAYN
Celery (Api g 1, MyBiosource, Cat# MBS 1171376) (Celery), sequence (P49372 whole entry): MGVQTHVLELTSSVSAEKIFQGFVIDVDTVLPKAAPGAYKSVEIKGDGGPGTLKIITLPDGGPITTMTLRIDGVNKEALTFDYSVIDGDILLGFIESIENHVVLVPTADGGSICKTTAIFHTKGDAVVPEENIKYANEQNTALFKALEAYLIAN
European Hornbeam (Car b 1 isoform 2, MyBiosource, Cat# MBS 1043940) (European Hornbeam), sequence (P38950 2-160 limits assumed): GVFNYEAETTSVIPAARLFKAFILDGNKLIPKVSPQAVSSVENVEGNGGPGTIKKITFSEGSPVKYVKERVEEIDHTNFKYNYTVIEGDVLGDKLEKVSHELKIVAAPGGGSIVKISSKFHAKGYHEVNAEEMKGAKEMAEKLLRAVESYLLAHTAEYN
European Hornbeam (Car b 1 isoform 1A & 1B, MyBiosource, Cat#MBS 1200018) (European Hornbeam), sequence (P38949 2-160): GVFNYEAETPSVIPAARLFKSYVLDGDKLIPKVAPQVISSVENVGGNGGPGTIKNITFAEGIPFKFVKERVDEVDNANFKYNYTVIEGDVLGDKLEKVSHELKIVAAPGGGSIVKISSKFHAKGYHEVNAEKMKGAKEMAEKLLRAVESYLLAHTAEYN
Alder (Aln g 1, MyBiosource, Cat# MBS 1041484) (Alder), sequence (P38948 2-160 limits assumed): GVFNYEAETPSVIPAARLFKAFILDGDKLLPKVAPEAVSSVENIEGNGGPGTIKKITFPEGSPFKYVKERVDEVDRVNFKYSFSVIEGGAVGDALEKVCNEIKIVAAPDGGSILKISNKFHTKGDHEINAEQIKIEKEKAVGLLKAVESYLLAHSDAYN

As to Isotype Control (antibody), the 100 nM Analyte Bound (RU) was 0 RU in [1]; 0 RU in [2]; 0 RU in experiment [3]; 1 RU in experiment [4]; 0 RU in experiment [5]; -1 RU in experiment [6].

As to Isotype control (antibody), the Percent Blocking is -4% in experiment [7]; -3% in [8]; -2% in experiment [9]; -3% in experiment [10]; -2% in experiment [11]; 16.8% in experiment [12]. Further, the Percent Blocking was -4% in [13]; 8.8% in [14]; -5% in [15]; 10.6% in experiment [16]; -1% in [17]; -4% in [18]. The Percent Blocking in experiment [19] is -2%.
